Results reported in patent publication US9422369 (QUEEN MARY AND WESTFIELD COLLEGE, dated 2016).
Ends that are not written are not given here.

Target: T1, peptide antigen EDGIKRIQDDC-biotin (from AT1-receptor N-terminal region) (rat (sequence also found in human and …))
T1 construct: Coated on Maxisorp plates for the ELISA; also called antigenic peptide; biotinylated peptide antigen
T1 peptide: EDGIKRIQDDC-biotin
Test: ELISA, coated EDGIKRIQDDC-biotin, anti-His-tag HRP detection; reference is the murine scFv
Procedure: IgM for comparative binding studies was purified as previously described for cellular invasion studies. The extinction coefficient used for IgM was 1.18 (Johnstone A, Thorpe R. *Immunochemistry in practice*. 2nd ed. Oxford: Blackwell Scientific Publications (1987)). Testing of Antigen Binding Using ELISA Enzyme-linked immunosorbant assays (ELISAs) were carried out in Maxisorp 96-well plates coated with Peptide antigen […]-biotin (SEQ ID NO: 14) (2-8 ug/ml in carbonate buffer pH 9.6) overnight at 4 or 37 C. The coated wells were blocked using 1% alkaline soluble casein (Blocking buffer) for 1 h at RT, then washed three times with PBS containing 0.1% v/v Tween 20. ScFv samples diluted between 1:1 to 1:100 in PBS-T were added and incubated for 1 h at RT before washing as before. A secondary HRP-conjugated anti-His-Tag antibody was then added (diluted 1:1000 in blocking buffer) for 1 h at RT. Wells were then washed three times in PBS-T then twice with PBS (without Tween 20). 100 µl of TMB substrate solution was added and colour was allowed to develop for 30 min, at which time 100 µl of 2M sulphuric acid was added to stop the reaction. Absorbance at 450 nm was read on a plate reading spectrophotometer. Protein concentrations were determined using an Eppendorf Biophotometer reading at 280 nm and using an extinction coefficient for the scFv of 1.7 as above.

B1: humanised scFv variant HuCY, His-tagged (scFv, V domains shown)
VH: QVQLVQSGPELVKPGASVKISCKASGYSFTGYNMNWVKQAPGKSLEWIGNIDPYYGGTTYNQKFKGKATLTVDKSSSTAYMQLKSLRSEDTAVYYCAREVDYWGQGTTVTVSS
notes: Resurfaced variant of 12D, changed only in the framework regions; not shown: C-terminal His-tag from the expression vector
fold binding in ELISA against the murine scFv: 5 fold
